Data: the supplement of paper PMC10065799, “High-throughput profiling of sequence recognition by tyrosine kinases and SH2 domains using bacterial peptide display” (eLife, 2023)

Test system: c-Src
Experiment: phosphorylation enrichment, bacterial display (enrichment ratio); higher = better substrate or ligand; peptides without Tyr show the background
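For SH2 binding enrichment of the phosphorylated peptide, bacterial display in this document: peptide library displayed on the E. coli surface as eCPX fusions, selected cells deep-sequenced, score is each peptide's frequency after selection divided by its frequency in the input.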
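For phosphorylation enrichment, bacterial display in this document: 11-residue human phosphosite peptides and single-mutation variants displayed on the E. coli surface, counted by deep sequencing, each peptide's frequency after selection divided by its frequency in the unselected input library; frequency after pTyr selection over input frequency; kinase dosed for 20-30% of maximal phosphorylation in three min.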

Going from YSTSPYLLEAA [BRIP1_Y921] to ISSLDYISKTK [VAV3_Y294], the phosphorylation enrichment falls from 2.21 to 0.487.

First: ATGMEYLASQK [FGFR2_Y616_R612T]
Second: GLGGGCGGASG [KRT8_Y54_Y54C]
The phosphorylation enrichment of the first is higher: 0.44 for the first, 0.404 for the second.

First: MGHVNYGAFIN [GLB1_Y485_R482H_YF]
Second: QNTGGYYDLYG [PTPN11_Y62_D61G]
The phosphorylation enrichment of the first is lower: 0.706 for the first, 5.87 for the second.

Compared with DSSIRYLQEIH [FGG_Y135_Y140H], AAVDEYLEHRR [FAM221A_Y17_Y20H] is higher in phosphorylation enrichment: 0.347 for the first, 0.389 for the second.

First: KQLGEYKFQNA [ALB_Y425_E420K]
Second: VDESLYKTHPQ [HK1_Y417_G414E]
The phosphorylation enrichment of the first is lower: 0.358 for the first, 0.541 for the second.

First: TFMKKYPKVFL [CNBD1_Y70_Q69K]
Second: CEDGTYSPEIS [PTDSS1_Y424]
The phosphorylation enrichment of the first is lower: 0.447 for the first, 0.663 for the second.

Going from PELINYQQHNS [BTK_Y361_H362Q] to ELANYYKLHHI [AK7_Y391], the phosphorylation enrichment falls from 0.969 to 0.762.

First: EVTRLYGSVCD [TC2N_Y154_K151T]
Second: PQIVKYRPDCI [LDHB_Y128_S129R]
The phosphorylation enrichment of the first is higher: 2.77 for the first, 0.663 for the second.

First: AIDVGYRLIDC [AKR1B1_Y40_H42L]
Second: YKRAVYCIIGR [NUP93_Y391]
The phosphorylation enrichment of the first is lower: 0.512 for the first, 0.626 for the second.

Going from GQECKYPPTQD [METAP2_Y137_E136K] to TFINKYQGKLF [HGD_Y249_V245F], the phosphorylation enrichment falls from 0.504 to 0.347.

Going from KEGSAYGSQSV [NFKB2_Y868_D865G] to SSSPTYLDLPF [GLI3_Y168_P169L], the phosphorylation enrichment rises from 0.468 to 0.647.

Compared with LQLLGHRPVFS [CHST6_Y358_Y358H_YF], CVAARYMDMKG [WFIKKN2_Y93_V96M] is lower in phosphorylation enrichment: 0.579 for the first, 0.39 for the second.

First: LISVSYDDWDF [GRIN2A_Y281_YF]
Second: NGSKAYAFVHF [PABPC5_Y147_G146A_YF]
The phosphorylation enrichment of the first is higher: 1.07 for the first, 0.372 for the second.

Compared with MNKNAYHNVTA [ST3GAL6_Y306], FTGNTYRVGDT [FN1_Y106_YF] is higher in phosphorylation enrichment: 0.331 for the first, 0.476 for the second.

Going from IGCHAYGDQYR [IDH1_Y135_R132C] to MPAVTYTLAMR [MEGF10_Y895_P897L], the phosphorylation enrichment rises from 0.493 to 0.503.

Going from FPCSVYMPDEW [INSR_Y1011_V1012M] to PEVRRHVLPLN [RPE65_Y368_Y368H], the phosphorylation enrichment falls from 3.15 to 0.661.

DGKYSYLKVGH [GRM3_Y480_G475D] gave a phosphorylation enrichment of 0.352.

Molecular target: Grb2 SH2 (UniProt P62993)
Experiment: SH2 binding enrichment of the phosphorylated peptide, bacterial display (enrichment ratio); higher = better substrate or ligand; peptides without Tyr show the background

Grb2 SH2, sequence (P62993 whole entry, looked up): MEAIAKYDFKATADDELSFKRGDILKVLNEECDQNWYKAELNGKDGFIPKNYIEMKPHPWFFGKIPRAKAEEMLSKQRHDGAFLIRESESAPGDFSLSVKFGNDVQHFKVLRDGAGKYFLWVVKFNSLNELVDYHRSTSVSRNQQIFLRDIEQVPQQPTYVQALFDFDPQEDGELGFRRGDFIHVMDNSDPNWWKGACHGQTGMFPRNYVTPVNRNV

Going from YSTSPYLLEAA [BRIP1_Y921] to ISSLDYISKTK [VAV3_Y294], the SH2 binding enrichment rises from 0.657 to 0.762.

Going from ATGMEYLASQK [FGFR2_Y616_R612T] to GLGGGCGGASG [KRT8_Y54_Y54C], the SH2 binding enrichment falls from 1.01 to 0.944.

First: MGHVNYGAFIN [GLB1_Y485_R482H_YF]
Second: QNTGGYYDLYG [PTPN11_Y62_D61G]
The SH2 binding enrichment of the first is lower: 0.882 for the first, 1 for the second.

Compared with DSSIRYLQEIH [FGG_Y135_Y140H], AAVDEYLEHRR [FAM221A_Y17_Y20H] is higher in SH2 binding enrichment: 0.705 for the first, 0.786 for the second.

Going from KQLGEYKFQNA [ALB_Y425_E420K] to VDESLYKTHPQ [HK1_Y417_G414E], the SH2 binding enrichment falls from 0.897 to 0.76.

First: TFMKKYPKVFL [CNBD1_Y70_Q69K]
Second: CEDGTYSPEIS [PTDSS1_Y424]
The SH2 binding enrichment of the first is higher: 1.12 for the first, 0.835 for the second.

First: PELINYQQHNS [BTK_Y361_H362Q]
Second: ELANYYKLHHI [AK7_Y391]
The SH2 binding enrichment of the first is higher: 0.753 for the first, 0.705 for the second.

First: EVTRLYGSVCD [TC2N_Y154_K151T]
Second: PQIVKYRPDCI [LDHB_Y128_S129R]
The SH2 binding enrichment of the first is lower: 1.11 for the first, 1.26 for the second.

Compared with AIDVGYRLIDC [AKR1B1_Y40_H42L], YKRAVYCIIGR [NUP93_Y391] is lower in SH2 binding enrichment: 0.993 for the first, 0.906 for the second.

First: GQECKYPPTQD [METAP2_Y137_E136K]
Second: TFINKYQGKLF [HGD_Y249_V245F]
The SH2 binding enrichment of the first is higher: 1.04 for the first, 0.726 for the second.

First: KEGSAYGSQSV [NFKB2_Y868_D865G]
Second: SSSPTYLDLPF [GLI3_Y168_P169L]
The SH2 binding enrichment of the first is lower: 0.648 for the first, 0.786 for the second.

First: LQLLGHRPVFS [CHST6_Y358_Y358H_YF]
Second: CVAARYMDMKG [WFIKKN2_Y93_V96M]
The SH2 binding enrichment of the first is lower: 0.912 for the first, 0.95 for the second.

Going from LISVSYDDWDF [GRIN2A_Y281_YF] to NGSKAYAFVHF [PABPC5_Y147_G146A_YF], the SH2 binding enrichment falls from 1.12 to 1.05.

First: MNKNAYHNVTA [ST3GAL6_Y306]
Second: FTGNTYRVGDT [FN1_Y106_YF]
The SH2 binding enrichment of the first is higher: 3.88 for the first, 0.893 for the second.

Going from IGCHAYGDQYR [IDH1_Y135_R132C] to MPAVTYTLAMR [MEGF10_Y895_P897L], the SH2 binding enrichment rises from 0.687 to 0.758.

Going from FPCSVYMPDEW [INSR_Y1011_V1012M] to PEVRRHVLPLN [RPE65_Y368_Y368H], the SH2 binding enrichment falls from 1 to 0.834.

With DGKYSYLKVGH [GRM3_Y480_G475D] the SH2 binding enrichment was 1.05.

Molecular target: SHP2-C SH2
Experiment: as above

First: YSTSPYLLEAA [BRIP1_Y921]
Second: ISSLDYISKTK [VAV3_Y294]
The SH2 binding enrichment of the first is higher: 1.15 for the first, 0.73 for the second.

First: ATGMEYLASQK [FGFR2_Y616_R612T]
Second: GLGGGCGGASG [KRT8_Y54_Y54C]
The SH2 binding enrichment of the first is lower: 0.571 for the first, 0.712 for the second.

Compared with MGHVNYGAFIN [GLB1_Y485_R482H_YF], QNTGGYYDLYG [PTPN11_Y62_D61G] is lower in SH2 binding enrichment: 0.804 for the first, 0.755 for the second.

Going from DSSIRYLQEIH [FGG_Y135_Y140H] to AAVDEYLEHRR [FAM221A_Y17_Y20H], the SH2 binding enrichment falls from 0.667 to 0.614.

Compared with KQLGEYKFQNA [ALB_Y425_E420K], VDESLYKTHPQ [HK1_Y417_G414E] is lower in SH2 binding enrichment: 1.04 for the first, 0.624 for the second.

Going from TFMKKYPKVFL [CNBD1_Y70_Q69K] to CEDGTYSPEIS [PTDSS1_Y424], the SH2 binding enrichment falls from 1.52 to 1.13.

First: PELINYQQHNS [BTK_Y361_H362Q]
Second: ELANYYKLHHI [AK7_Y391]
The SH2 binding enrichment of the first is lower: 0.732 for the first, 0.941 for the second.

Compared with EVTRLYGSVCD [TC2N_Y154_K151T], PQIVKYRPDCI [LDHB_Y128_S129R] is higher in SH2 binding enrichment: 0.379 for the first, 0.817 for the second.

Going from AIDVGYRLIDC [AKR1B1_Y40_H42L] to YKRAVYCIIGR [NUP93_Y391], the SH2 binding enrichment rises from 0.7 to 0.792.

Compared with GQECKYPPTQD [METAP2_Y137_E136K], TFINKYQGKLF [HGD_Y249_V245F] is higher in SH2 binding enrichment: 0.689 for the first, 0.78 for the second.

Going from KEGSAYGSQSV [NFKB2_Y868_D865G] to SSSPTYLDLPF [GLI3_Y168_P169L], the SH2 binding enrichment rises from 0.379 to 0.57.

Compared with LQLLGHRPVFS [CHST6_Y358_Y358H_YF], CVAARYMDMKG [WFIKKN2_Y93_V96M] is lower in SH2 binding enrichment: 0.923 for the first, 0.765 for the second.

Going from LISVSYDDWDF [GRIN2A_Y281_YF] to NGSKAYAFVHF [PABPC5_Y147_G146A_YF], the SH2 binding enrichment rises from 0.797 to 20.4.

First: MNKNAYHNVTA [ST3GAL6_Y306]
Second: FTGNTYRVGDT [FN1_Y106_YF]
The SH2 binding enrichment of the first is lower: 0.51 for the first, 0.853 for the second.

Going from IGCHAYGDQYR [IDH1_Y135_R132C] to MPAVTYTLAMR [MEGF10_Y895_P897L], the SH2 binding enrichment rises from 0.59 to 3.33.

Going from FPCSVYMPDEW [INSR_Y1011_V1012M] to PEVRRHVLPLN [RPE65_Y368_Y368H], the SH2 binding enrichment falls from 0.956 to 0.391.

DGKYSYLKVGH [GRM3_Y480_G475D] showed an SH2 binding enrichment of 1.45.

Molecular target: c-Src SH2
Experiment: as above

Compared with YSTSPYLLEAA [BRIP1_Y921], ISSLDYISKTK [VAV3_Y294] is lower in SH2 binding enrichment: 0.629 for the first, 0.419 for the second.

Going from ATGMEYLASQK [FGFR2_Y616_R612T] to GLGGGCGGASG [KRT8_Y54_Y54C], the SH2 binding enrichment rises from 0.465 to 0.525.

Compared with MGHVNYGAFIN [GLB1_Y485_R482H_YF], QNTGGYYDLYG [PTPN11_Y62_D61G] is higher in SH2 binding enrichment: 0.44 for the first, 7.13 for the second.

Compared with DSSIRYLQEIH [FGG_Y135_Y140H], AAVDEYLEHRR [FAM221A_Y17_Y20H] is lower in SH2 binding enrichment: 0.499 for the first, 0.418 for the second.

Compared with KQLGEYKFQNA [ALB_Y425_E420K], VDESLYKTHPQ [HK1_Y417_G414E] is lower in SH2 binding enrichment: 0.565 for the first, 0.458 for the second.

Compared with TFMKKYPKVFL [CNBD1_Y70_Q69K], CEDGTYSPEIS [PTDSS1_Y424] is lower in SH2 binding enrichment: 1.17 for the first, 0.519 for the second.

First: PELINYQQHNS [BTK_Y361_H362Q]
Second: ELANYYKLHHI [AK7_Y391]
The SH2 binding enrichment of the first is higher: 0.491 for the first, 0.474 for the second.

First: EVTRLYGSVCD [TC2N_Y154_K151T]
Second: PQIVKYRPDCI [LDHB_Y128_S129R]
The SH2 binding enrichment of the first is lower: 0.503 for the first, 0.671 for the second.

First: AIDVGYRLIDC [AKR1B1_Y40_H42L]
Second: YKRAVYCIIGR [NUP93_Y391]
The SH2 binding enrichment of the first is higher: 2.02 for the first, 0.937 for the second.

First: GQECKYPPTQD [METAP2_Y137_E136K]
Second: TFINKYQGKLF [HGD_Y249_V245F]
The SH2 binding enrichment of the first is higher: 0.63 for the first, 0.629 for the second.

First: KEGSAYGSQSV [NFKB2_Y868_D865G]
Second: SSSPTYLDLPF [GLI3_Y168_P169L]
The SH2 binding enrichment of the first is lower: 0.447 for the first, 0.464 for the second.

Going from LQLLGHRPVFS [CHST6_Y358_Y358H_YF] to CVAARYMDMKG [WFIKKN2_Y93_V96M], the SH2 binding enrichment rises from 0.544 to 1.39.

Going from LISVSYDDWDF [GRIN2A_Y281_YF] to NGSKAYAFVHF [PABPC5_Y147_G146A_YF], the SH2 binding enrichment rises from 1.36 to 1.65.

Compared with MNKNAYHNVTA [ST3GAL6_Y306], FTGNTYRVGDT [FN1_Y106_YF] is lower in SH2 binding enrichment: 2.14 for the first, 0.479 for the second.

Going from IGCHAYGDQYR [IDH1_Y135_R132C] to MPAVTYTLAMR [MEGF10_Y895_P897L], the SH2 binding enrichment rises from 0.551 to 0.726.

First: FPCSVYMPDEW [INSR_Y1011_V1012M]
Second: PEVRRHVLPLN [RPE65_Y368_Y368H]
The SH2 binding enrichment of the first is higher: 0.989 for the first, 0.663 for the second.

DGKYSYLKVGH [GRM3_Y480_G475D] showed an SH2 binding enrichment of 4.12.
